Source: PMC3411905

What follows are molecules tested against Sas-4-NΔT GST (Drosophila) (UniProt Q9VI72) (assay: pull-down).

Molecule | fold amount pulled down relative to Sas-4-N
Asl (from UniProt Q9VNE4 1-994) (natural protein) | 3 times
Grip128 (natural protein) | 3 times
γ-tubulin (from UniProt P23257 1-475) (natural protein) | 3 times
Cnn (natural protein) MNSNRTSSSHNSRNLKILNASFDVPRPPGGGNSPLPSQGRSVRELEEQMSALRKENFNLKLRIYFLEEGQPGARADSSTESLSKQLIDAKIEIATLRKTVDVKMELLKDAARAISHHEELQRKADIDSQAIIDELQEQIHAYQMAESGGQPVENIAKTRKMLRLESEVQRLEEELVNIEARNVAARNELEFMLAERLESLTACEGKIQELAIKNSELVERLEKETASAESSNEAIDSLKVELEACRKENQDLVTSIRTLKHDMKRQVRSMKEAANTMDVQRQSILLLEATIKRKEKSCGSMQKNVLNYEALIAKLNAELETMRQQNVYFRELSENLQQKEVRQLDRGVAIVQPMRMTADAGRFVWQSGTIVAQEPLPLERQSAAATSNVSVSAVRLSSGPPPDQTYPVNGHDRAKYGLLQLFAAKLDWISAVPLALGHLALKIILLAMRLHSCLQNVHIPLRANRDLGAQLADKICELQEAQEKLKERERIHEQACRTIQKLMQKLSSQEKEIKKLNQENEQSANKENDCAKTVISPSSSGRSMSDNEASSQEMSTNLRVRYELKINEQEEKIKQLQTEVKKKTANLQNLVNKELWEKNREVERLTKLLANQQKTLPQISEESAGEADLQQSFTEAEYMRALERNKLLQRKVDVLFQRLADDQQNSAVIGQLRLELQQARTEVETADKWRLECVDVCSVLTNRLEELAGFLNSLLKHKDVLGVLAADRRNAMRKAVDRSLDLSKSLNMTLNITATSLADQSLAQLCNLSEILYTEGDASHKTFNSHEELHAATSMAPTVENLKAENKALKKELEKRRSSEGQRKERRSLPLPSQQFDNQSESEAWSEPDRKVSLARIGLDETSNSLAAPEQAISESESEGRTCATRQDRNRNSERIAQLEEQIAQKDERMLNVQCQMVELDNRYKQEQLRCLDITQQLEQLRAINEALTADLHAIGSHEEERMVELQRQLELKNQQIDQLKLAHSTLTADSQITEMELQALQQQMQEIEQLHADSVETLQSQLQKLKLDAVQQLEEHERLHREALERDWVALTTYQEQAQQLLELQRSLDYHQENEKELKQTLVENELATRALKKQLDESTLQASKAVMERTKAYNDKLQLEKRSEELRLQLEALKEEHQKLLQKRSNSSDVSQSGYTSEEVAVPMGPPSGQATTCKQAAAAVLGQRVNTSSPDLGIESDAGRISSVEVSNAQRAMLKTVEMKTEGSASPKAKSEESTSPDSKSNVATGAATVHDCAKVDLENAELRRKLIRTKRAFEDTYEKLRMANKAKAQVEKDIKNQILKTHNVLRNVRSNMENEL | 3 times
